{
  "source": "patent US20210087271A1",
  "key": {"C1q [1]": {"molecular_target": "C1q (UniProt P02745)", "sequence (P02745 23-245 limits assumed, chain 1 of 3)": "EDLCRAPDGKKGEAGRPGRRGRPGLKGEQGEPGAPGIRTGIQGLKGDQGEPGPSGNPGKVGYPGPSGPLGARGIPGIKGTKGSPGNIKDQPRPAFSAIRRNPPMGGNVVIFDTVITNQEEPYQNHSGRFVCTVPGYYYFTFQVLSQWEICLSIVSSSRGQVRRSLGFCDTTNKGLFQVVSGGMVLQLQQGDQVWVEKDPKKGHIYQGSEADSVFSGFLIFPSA", "sequence (P02746 28-253 limits assumed, chain 2 of 3, further chain)": "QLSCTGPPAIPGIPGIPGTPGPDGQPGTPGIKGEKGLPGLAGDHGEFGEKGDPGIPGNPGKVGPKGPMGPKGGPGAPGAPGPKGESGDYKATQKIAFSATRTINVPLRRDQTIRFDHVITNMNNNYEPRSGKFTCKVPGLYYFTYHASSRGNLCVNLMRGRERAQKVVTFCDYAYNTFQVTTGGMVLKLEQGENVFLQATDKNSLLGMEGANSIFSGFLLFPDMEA", "sequence (P02747 29-245 limits assumed, chain 3 of 3, further chain)": "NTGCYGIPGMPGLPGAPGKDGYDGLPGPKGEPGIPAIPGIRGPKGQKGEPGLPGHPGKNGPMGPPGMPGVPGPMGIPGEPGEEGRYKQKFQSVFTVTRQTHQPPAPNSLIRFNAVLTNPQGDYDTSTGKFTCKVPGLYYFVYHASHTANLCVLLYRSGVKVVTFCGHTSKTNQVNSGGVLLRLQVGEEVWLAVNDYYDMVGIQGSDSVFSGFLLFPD", "assay": "SPR Biacore 8K; IgG captured on biotinylated CD3 peptide SA chip; 1 µM C1q, pH 7.4"}, "FcRn": {"molecular_target": "FcRn (UniProt P55899)", "sequence (P55899 24-297 limits assumed, chain 1 of 2)": "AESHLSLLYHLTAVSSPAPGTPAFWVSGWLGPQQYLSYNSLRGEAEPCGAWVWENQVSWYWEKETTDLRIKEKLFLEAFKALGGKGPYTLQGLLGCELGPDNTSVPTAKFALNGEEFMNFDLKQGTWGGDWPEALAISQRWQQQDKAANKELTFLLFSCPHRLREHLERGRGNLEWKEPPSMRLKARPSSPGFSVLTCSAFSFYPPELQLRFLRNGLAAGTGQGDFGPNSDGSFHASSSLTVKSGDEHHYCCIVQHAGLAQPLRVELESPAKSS", "sequence (P61769 21-119 limits assumed, chain 2 of 2, further chain)": "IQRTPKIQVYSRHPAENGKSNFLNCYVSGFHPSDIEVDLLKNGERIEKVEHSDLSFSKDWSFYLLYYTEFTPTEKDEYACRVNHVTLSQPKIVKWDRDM", "assay": "SPR Biacore 8K; IgG captured on biotinylated CD3 peptide SA chip; 1 µM FcRn, pH 6.0"}, "FcγRIIA (human) [2]": {"molecular_target": "FcγRIIA (human) (UniProt P12318)", "sequence (P12318 36-218 limits assumed)": "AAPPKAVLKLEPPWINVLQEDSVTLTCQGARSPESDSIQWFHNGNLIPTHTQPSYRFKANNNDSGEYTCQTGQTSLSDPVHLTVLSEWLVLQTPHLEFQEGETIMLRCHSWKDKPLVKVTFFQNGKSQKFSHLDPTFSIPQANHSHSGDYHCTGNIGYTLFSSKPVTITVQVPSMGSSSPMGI", "assay": "SPR Biacore 8K; IgG captured on biotinylated CD3 peptide SA chip; 1 µM FcγRIIA, pH 7.4"}, "FcγR on THP-1 cells": {"molecular_target": "FcγR on THP-1 cells", "assay": "flow cytometry; 100 nM antibody pre-complexed with 10 nM biotinylated CD3 peptide, on THP-1 cells"}, "FcγRIIIA (human)": {"molecular_target": "FcγRIIIA (human) (UniProt P08637)", "sequence (P08637 17-208 limits assumed)": "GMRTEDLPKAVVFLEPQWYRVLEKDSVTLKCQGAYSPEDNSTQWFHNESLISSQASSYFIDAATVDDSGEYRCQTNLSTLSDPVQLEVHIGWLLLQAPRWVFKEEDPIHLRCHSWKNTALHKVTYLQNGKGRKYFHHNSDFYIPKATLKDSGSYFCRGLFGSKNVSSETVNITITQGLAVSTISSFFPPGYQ", "assay": "SPR Biacore 8K; IgG captured on biotinylated CD3 peptide SA chip; 1 µM FcγRIIIA, pH 7.4"}, "FcγRI (human) [3]": {"molecular_target": "FcγRI (human) (UniProt P12314)", "sequence (P12314 16-288 limits assumed)": "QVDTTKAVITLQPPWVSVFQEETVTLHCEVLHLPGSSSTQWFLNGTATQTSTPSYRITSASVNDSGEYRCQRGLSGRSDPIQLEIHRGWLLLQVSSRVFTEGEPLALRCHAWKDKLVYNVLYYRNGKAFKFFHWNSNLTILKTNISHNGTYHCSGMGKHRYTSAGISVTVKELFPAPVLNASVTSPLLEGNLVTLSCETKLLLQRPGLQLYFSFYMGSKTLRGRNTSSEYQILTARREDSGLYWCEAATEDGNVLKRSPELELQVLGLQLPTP", "assay": "SPR Biacore 8K; IgG captured on biotinylated CD3 peptide SA chip; 100 nM FcγRI, pH 7.4"}, "FcγRI (human) [4]": {"molecular_target": "FcγRI (human) (UniProt P12314)", "assay": "SPR Biacore 8K, response vs WT"}, "FcγRIIA (human) [5]": {"molecular_target": "FcγRIIA (human) (UniProt P12318)", "assay": "SPR Biacore 8K, response vs WT"}, "C1q [6]": {"molecular_target": "C1q (UniProt P02745)", "assay": "flow cytometry; antibody on CD3 peptide-coated SA Dyna Beads incubated with C1q"}, "CD3": {"molecular_target": "CD3", "assay": "BLI ForteBio; IgG on AHQ sensor, 100 nM antigen, 1:1 model"}},
  "note": "“And” between values parts separate entries of the source, which are not always exact repeats. Equal values may be shown once.",
  "data": [
    {"substance": "LALE-PG variant of the CD3 antibody (WT engineered to contain L234A and L235E and P329G) (from UniProt P01857 1-330)", "values": [
      {"measurement": "late association response (RU)", "setting": "C1q [1]", "value": -6.5, "unit": "RU"},
      {"measurement": "late association response (RU)", "setting": "FcRn", "value": 37.3, "unit": "RU"},
      {"measurement": "late association response (RU)", "setting": "FcγRIIA (human) [2]", "value": 0, "unit": "RU"},
      {"measurement": "THP-1 Binding (MFI)", "setting": "FcγR on THP-1 cells", "value": 124, "unit": "MFI"},
      {"measurement": "late association response (RU)", "setting": "FcγRIIIA (human)", "value": -0.3, "unit": "RU"},
      {"measurement": "late association response (RU)", "setting": "FcγRI (human) [3]", "value": 0.8, "unit": "RU"},
      {"measurement": "% reduction of binding compared to WT", "setting": "FcγRI (human) [4]", "value": 99.1, "unit": "%"},
      {"measurement": "% reduction of binding compared to WT", "setting": "FcγRIIA (human) [5]", "value": 100, "unit": "%"},
      {"measurement": "C1q Binding (MFI)", "setting": "C1q [6]", "value": 865, "unit": "MFI"}
    ]},
    {"substance": "LALE variant of the CD3 antibody (WT engineered to contain L234A and L235E) (from UniProt P01857 1-330)", "values": [
      {"measurement": "late association response (RU)", "setting": "C1q [1]", "value": -27.3, "unit": "RU"},
      {"measurement": "late association response (RU)", "setting": "FcRn", "value": 38.9, "unit": "RU"},
      {"measurement": "late association response (RU)", "setting": "FcγRIIA (human) [2]", "value": 0.1, "unit": "RU"},
      {"measurement": "THP-1 Binding (MFI)", "setting": "FcγR on THP-1 cells", "value": 5300, "unit": "MFI"},
      {"measurement": "late association response (RU)", "setting": "FcγRIIIA (human)", "value": 0.4, "unit": "RU"},
      {"measurement": "C1q Binding (MFI)", "setting": "C1q [6]", "value": 1790, "unit": "MFI"}
    ]},
    {"substance": "LALA-PG variant of the CD3 antibody (WT engineered to contain L234A and L235A and P329G) (from UniProt P01857 1-330)", "values": [
      {"measurement": "late association response (RU)", "setting": "C1q [1]", "value": -25.1, "unit": "RU"},
      {"measurement": "late association response (RU)", "setting": "FcRn", "value": 44.5, "unit": "RU"},
      {"measurement": "late association response (RU)", "setting": "FcγRIIA (human) [2]", "value": -0.1, "unit": "RU"},
      {"measurement": "THP-1 Binding (MFI)", "setting": "FcγR on THP-1 cells", "value": 146, "unit": "MFI"},
      {"measurement": "late association response (RU)", "setting": "FcγRIIIA (human)", "value": -0.3, "unit": "RU"},
      {"measurement": "late association response (RU)", "setting": "FcγRI (human) [3]", "value": 2, "unit": "RU"},
      {"measurement": "C1q Binding (MFI)", "setting": "C1q [6]", "value": 676, "unit": "MFI"}
    ]},
    {"substance": "LALE-PA variant of the CD3 antibody (WT engineered to contain L234A and L235E and P329A) (from UniProt P01857 1-330)", "values": [
      {"measurement": "late association response (RU)", "setting": "C1q [1]", "value": -23.3, "unit": "RU"},
      {"measurement": "late association response (RU)", "setting": "FcRn", "value": 38.1, "unit": "RU"},
      {"measurement": "late association response (RU)", "setting": "FcγRIIA (human) [2]", "value": -0.1, "unit": "RU"},
      {"measurement": "THP-1 Binding (MFI)", "setting": "FcγR on THP-1 cells", "value": 124, "unit": "MFI"},
      {"measurement": "late association response (RU)", "setting": "FcγRIIIA (human)", "value": -0.1, "unit": "RU"},
      {"measurement": "late association response (RU)", "setting": "FcγRI (human) [3]", "value": 0.8, "unit": "RU"},
      {"measurement": "C1q Binding (MFI)", "setting": "C1q [6]", "value": 660, "unit": "MFI"}
    ]},
    {"substance": "LALA variant of the CD3 antibody (WT engineered to contain L234A and L235A) (from UniProt P01857 1-330)", "values": [
      {"measurement": "late association response (RU)", "setting": "C1q [1]", "value": -13.9, "unit": "RU"},
      {"measurement": "late association response (RU)", "setting": "FcRn", "value": 44, "unit": "RU"},
      {"measurement": "late association response (RU)", "setting": "FcγRIIA (human) [2]", "value": 0.1, "unit": "RU"},
      {"measurement": "THP-1 Binding (MFI)", "setting": "FcγR on THP-1 cells", "value": 5270, "unit": "MFI"},
      {"measurement": "late association response (RU)", "setting": "FcγRIIIA (human)", "value": 0.6, "unit": "RU"},
      {"measurement": "late association response (RU)", "setting": "FcγRI (human) [3]", "value": 23.5, "unit": "RU"},
      {"measurement": "C1q Binding (MFI)", "setting": "C1q [6]", "value": 1980, "unit": "MFI"}
    ]},
    {"substance": "LALA-PA variant of the CD3 antibody (WT engineered to contain L234A and L235A and P329A) (from UniProt P01857 1-330)", "values": [
      {"measurement": "late association response (RU)", "setting": "C1q [1]", "value": -3.3, "unit": "RU"},
      {"measurement": "late association response (RU)", "setting": "FcRn", "value": 45.1, "unit": "RU"},
      {"measurement": "late association response (RU)", "setting": "FcγRIIA (human) [2]", "value": -0.1, "unit": "RU"},
      {"measurement": "THP-1 Binding (MFI)", "setting": "FcγR on THP-1 cells", "value": 169, "unit": "MFI"},
      {"measurement": "late association response (RU)", "setting": "FcγRIIIA (human)", "value": -0.5, "unit": "RU"},
      {"measurement": "% reduction of binding compared to WT", "setting": "FcγRI (human) [4]", "value": "> 95% and 97.6%"},
      {"measurement": "% reduction of binding compared to WT", "setting": "FcγRIIA (human) [5]", "value": "> 95% and 100%"},
      {"measurement": "C1q Binding (MFI)", "setting": "C1q [6]", "value": 621, "unit": "MFI"},
      {"measurement": "Kd", "setting": "CD3", "value": 3.9, "unit": "nM"}
    ]}
  ]
}
